Results: patent US20240342207, “MODIFIED NUCLEIC ACID COMPOSITIONS AND ASSOCIATED METHODS FOR TREATMENT OF PHENYLKETONURIA” (BOARD OF REGENTS, THE UNIVERSITY OF TEXAS SYSTEM, published 2024)

How the values were obtained:
[1] = biological target: T1, PAH (phenylalanine hydroxylase), wild type (Homo sapiens, UniProt P00439 P00439:1-452); assay: EMSA; 5 mM MgCl2, 100 mM KCl, 30 C; details: tags: His-tag, pET-DEST42, E. coli BL21-CodonPlus (DE3)-RIPL, cobalt resin, label: 32P
T1 sequence: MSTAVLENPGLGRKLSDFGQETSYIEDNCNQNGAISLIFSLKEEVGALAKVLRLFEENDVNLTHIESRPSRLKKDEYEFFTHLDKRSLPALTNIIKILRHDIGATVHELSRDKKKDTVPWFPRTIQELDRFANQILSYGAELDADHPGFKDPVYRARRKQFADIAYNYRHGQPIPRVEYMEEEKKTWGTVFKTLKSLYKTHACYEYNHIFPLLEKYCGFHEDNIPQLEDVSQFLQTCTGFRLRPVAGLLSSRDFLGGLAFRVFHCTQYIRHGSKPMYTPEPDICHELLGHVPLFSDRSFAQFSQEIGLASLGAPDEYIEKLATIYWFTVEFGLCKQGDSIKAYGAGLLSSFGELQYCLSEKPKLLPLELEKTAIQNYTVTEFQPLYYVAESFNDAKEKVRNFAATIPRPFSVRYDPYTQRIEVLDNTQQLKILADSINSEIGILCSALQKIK
Experimental: RNA Electrophoretic Mobility Shift Assay (EMSA). The gel mobility shift assay was performed as previously described (42). Briefly, 500 ng recombinant His-tagged wild-type PAH or mutants were incubated with 0.035 μmol labeled probe in a RNA-protein binding buffer [(50 mM Tris-HCl 7.9, 10% glycerol, 100 mM KCl, 5 mM MgCl₂, 10 mM (3-ME, 0.1% NP40] for 30 min at 30° C. For cold RNA competition, 0.035 μmol radiolabeled RNA probes were first mixed with 7 μmol cold RNA competitors and then subjected to the gel shift assay.

[2] = biological target: T1, PAH (phenylalanine hydroxylase), wild …; assay: affinity similar to full-length HULC; details: tags: His-tag, pET-DEST42, E. coli BL21-CodonPlus (DE3)-RIPL, cobalt resin
[3] = biological target: T1, PAH (phenylalanine hydroxylase), wild …; assay: mutant mimic abolished interaction; details: tags: His-tag, pET-DEST42, E. coli BL21-CodonPlus (DE3)-RIPL, cobalt resin

B1: HULC 180-202 WT EMSA probe (ssRNA)
RNA: CCAAAAUGCAUAUGUAUCUUUGG
B1: binds ([1]; stem-loop).

B2: HULC 180-202 mutant EMSA probe (ssRNA)
RNA: CCAAAAUGCAUGUGUAUCUUUGG
B2: no binding [1].

B3: HULC mimic, 2'-F (XNA)
DNA: CAAAATGCATATGTATCTTTG
modifications: 2'-F at all nucleotides
B3: binds [2].

B4: HULC mutant mimic, 2'-F (A191G) (XNA)
DNA: CAAAATGCATGTGTATCTTTG
modifications: 2'-F at all nucleotides
B4: no binding [3].

B5: Pair 467-488 WT EMSA probe (ssRNA)
RNA: GGUGAGCUGCGUAUAGCUCGUC
B5: binds ([1]; stem-loop).

B6: Pair 467-488 mutant EMSA probe (ssRNA)
RNA: GGUGAGCUGCGUGUAGCUCGUC
B6: no binding [1].
